The DeepSol protein solubility set

Assay: soluble on expression in E. coli; label from the status in PepcDB or PDB records

Sequence	soluble on expression in E. coli
KYPFLREAGSSFKDRDVTKMSDLIATWDGQDIKGPALIGVPLSKSSISHSGASFAPGTIRQALKHSSAYSAELGEHVVSELLYDLGDIDIHVTDIVKSHHHIFQTMHALLSDHPDWVPLILGGDNSISYSTIKAIAQTKGTTAVIQFDAHHDVRNTEDGGPTNGTPFRRLLDEEIIEGQHLIQLGIREFSNSQAYEAYAKKHNVNIHTMDMIREKGLIPTIKEILPVVQDKTDFIFISVDMDVLDQSHAPGCPAIGPGGLYTDELLEAVKYIAQQPNVAGIEIVEVDPTLDFRDMTSRAAAHVLLHALK	not soluble
GMMNDYLNFLDGRVSVRRFDPDAVLPNDLIKDMLEHASYAPSGNNFQPWRVVVVKNKNKQEDLKKLAALQPQVATASAVFLLFGDENAYDLTWWQEFHVQKGIITKDEAAARAERIRQYFDLHPEDKETQGLRLDVGLFAMNLMQVVRVYGYDSVPMRGVDFDAIKTYLDMPNGWEPILMLPVGKALQAGNPHVRKSVAEFAEIIE	soluble
MIDHALALTHIDERGAARMVDVSEKPVTLRVAKASGLVIMKPSTLRMISDGAAAKGDVMAAARIAGIAAAKRTGDLIPLCHPLGLDAVSVTITPCEPDRVKILATTTTLGRTGVEMEALTAVSVAALTIYDMCKAVDRAMEISQIVLQEKSGGRSGVYRRSASDLACQSR	soluble
MSLAKTVEEINQKIREGNVVVVTAAEMKDIVEELGPEKAAKEVDVVTTGTFGAMCSSGAFFNFGHADPPIKMQRVWMNDVEAYTGIAAVDAYLGVTQLSESVEEYGGSHVIEELVKGREVELKATAYGTDCYPRKEIVTEVSLEDVNQAVMVNPRNAYQRYNAATNSSNKLLRTYMGTLLPNFGNVTFAGTGEISPLNNDPEYRTIGIGTRIFLCGAKGYVIGEGTQHAPPYGTLMVKGNLKEMKPEYMKAAYFPGYGATLFVGIGIPIPILDAEMAKFTAVRNSEIETKILDFGVARRDRPVVRKVTYEELISGRVEINGEEVRVSPLSSFYMAEKIMKELKRQIERGEFLLTAPVDRIPTKEVFKPMRQREVKVVKSVMVEAYTISPETAIEEAARIMMDKGINHIPVVEEGRLVGIITSWDIAKAVARNRKGAVKSIMTRNVIYTHPDEPVEVAARKMEQNNISALPVVDSRKRVLGIVTSEDLSKLIAREGHHHHHH	soluble
GTDQYTLLANRVQNAVEARQSATEAERRRHRLEQILKTVPSCVVQLDRDGQFVFANQRAIDVLGLSQSELKDRLYNDPEWEIRDLDGHPIPDAELPFRQVLETGQPLSDARHTIHWPDGTEKVLSVNGAPLFDDD	not soluble
AHHHHHHGSRTNAFEAVARYVYPSLRRRLVEILRERGLTQIQIAELLHITQSAVSRYLRMNRGALIEVEKFQDIDEKLKGLADTIVREKPDEYYIHGELVKIAVEMLGKGYVCSFHSKVDPEIDPKLCRICIETFG	not soluble
PGATPMSLGLFSPTILLPDSAREWPPERQRLVLLHEMAHLKHRDLLLGLVGQLGRALHWPNPLAWTGWSKLLQAREAACDETVLAAGEDPETYAHQLLAAAR	not soluble
MEKLSSSSHFLDLGGLDNLRAQAQKDEKGALKKVAQQFEGVFVQMLMKSMRDANAVFESDSPLNSQYTKFYEQMRDQQLSVDLSDKGVLGLADMMVQQLSPESSPFTPASVLRNDGGMKLEHDAKALNIPTQTPSTAEAESANTPVVVAHGVPASIARPSVEFEDNNGVTSSLDIDRPQRLLAIDTPKPTWSEQPLSAIEPVISGQILPTVAFRETQKTLKFGSREEFLATLYPHAEKAAKALGTKPEVLLAQSALETGWGQKIVRGHNGAPSHNLFNIKADRRWQGDKANVSTLEFEQGIAVRQKADFRVYNDFDHSFNDFVSFIADGERYQDAKKVAASPTQFIRALQEAGYATDPKYAEKVIKVMQSISEELKSILPGEDK	not soluble
MSLARSTPAIVILGQGSLDTARQIQRLYPDSLIHGLAERVEGADRVYHEFGATLRQLYQQDTPIIALCAAGIVIRTLAPLLLEKGAEPPVLAVAEDGSAVVPLLGGLGGVNVMAREIAAGLGVAAAITTSGELRFGTCLLNPPSGYALGDLELGKRFVSDLLGGESVRIEGAAPWLAAAKLPENDQARLTIRVGSAEREPVANELLIYPRSVLVACRGQRLAGEADSDLATHIRQALHQARIAVQSVACLLAADRDMADRALHQAAAQLGVPLRFLPAADSVAELAQQAVPQLLPPLKVGEDIAIAVASQPLDPEQIGRPRGRLAVIGLGPGAAELMVPAVKAELARANDILGYETYVRMAGPFRADQVMHCTDNREEMQRARHAFELAAQGRSVVVVSSGDPGVFAMAAAVIEALHESSDPAWHSVDLEILPGVSASLATAAQAGAPLGHDFCVLSLSDNLKPWDIIEKRLDLASQADLALAFYNPISRSRPWQLGRALEIVRQHRTPQTPVVLGRDIGRPGQTLRVITLGELTPEQVDMRTMVLVGSSTTCVFPRAGGGDWVYTPRWYGNKEGHHHHHH	soluble
MNWPLLYDMQRMLDRRIETEHGLMEEDLFARKQLAFLVELGELANETRCFKFWSIKPPAPAERVLEEYVDGLHFLLSLGLECGLFYEENEAPSAGRPLVEQFLAVFRAAERFGETRARGEYDALFAEYWRLGVALGFSSDDIEAAYRRKNEVNHKRQNERY	not soluble
MSLLQRDLVNTTGFLRMIMEHNYEKFASVYDAVMDDSLYDLWTDFSLRHLPKSKGRNRLLELACGTGIQSVRFAQAGFDVTGLDLSQDMLAIAKKRAQSAKKKIDFIQGNMLDLSQVGQFDFVTCYSDSICYMQDEVDVGDVFKEVYDVLANDGIFIFDVHSTYQTDECFPGYSYHENADDFAMVWDTYADEAPHSVVHELTFFIQEDDGRFSRFDEVHEERTYELLTYDILLEQAGFKSFKVYADFEDKEPTKTSKRWFFVAYKEGHHHHHH	soluble
MGSDKIHHHHHHMTSKITRQANASEDSLLRIFTAPEDSTSTLSIIEQKLSQDLAGFLGNSIAALEKPLSEIETDFSAYQIPTEPKFVSDYADEIMQNLVAHSVHTSAPSFIGHMTSALPYFVLPLSKMMVGLNQNLVKIETSKAFTPLERQVLGMMHNLVYQQSDDFYHQWMHSANHSLGAFCSGGTVANITALWIARNRLLQPRGDFKGVTREGMTKALRFYGYDDLAILVSDRGHYSLGKTADLLGIGRDNIISIPTDEHHKVDVAAMRDAAEKLAQQNIKVMAIVGIAGTTETGNVDPLTELAALASELNCHFHVDAAWGGASLLSKKYSHLLKGIELADSVTIDAHKQMYVPMGAGMVLFKDPELAKAIVHHAEYILRVGSKDLGSQTLEGSRPGMAMLVHACLQIIGRDGYEILINNSLEKARYFGSIIDQHADFELVTAPELCLLTYRYVPKSVQAILTTALANQDSALVASINELLDGLTQFIQKHQREQGKSFVSRTRIKPAKYLRQPTTVFRVVLANPLTSHQILHDVLTEQVEIAALDSEYLPQLLAL	not soluble
MEIELICICCPKGCHLKVDDKSLRVEGNNCPRGAEYGVNEITNPVRTITSTVKVEKGEAVIVPVKTKEPIPKKLTMGCMEEINKAVINAPVKIGDVVIKNVLGTGIDVVATKNVSGI	soluble
AEEHEHHHHDEEHAHHHHHEGSEVDEYGISTFVYYRRPAFDIHKFDRFVSTQWSRNIIRAKGVCYFSNNRDMSFLFEQAGVQKKLKEAGLWYATAPEEELIEVIRQEPGLLRDWDDKYGDRMQKIVFIGRHLDKEELIRELDECLE	not soluble
MGSDKIHHHHHHARIVYLNHCYPSPKVITYTDNDTIKLGNYEIKQTGWEWGDGSLLKEKCPDYAYDQTDDGSEYPFDSVRVGFITLSVTKVKDDTTSLDLTSLAFEMGTNGDQYDMELFFALNPTLEALEIKLNAGEDVSFVIPYIMDEQQVSKKDWSRVDKMKLYMVLQYYPQKIRLCCN	not soluble
MGSDKIHHHHHHMDQAQIEIQVLSSLSQIAASDWDACACPEAEAGGRPLDPFTTHRFLSALEDSGSVGQGTGWQPQYLTCYLDGQLVACAPLYAKGHSQGEYIFDHNWAHAYERAGGRYYPKLQVAVPFTPATGRRFLVRPGYEEIGISALLQGAVQLASDNQLSSLHVTFCTSDEAEAGREIGLMSRSSQQFHWLNDGYAGFEAFLAALSSRKRKNIRKERKQAQGFGGSIETYTGADLRSEHWDAFWRFYQDTGSRKWGTPYLTRAFFEIIHDTMAEDMALVLAERDGVPVAGALNFIGAKTLYGRYWGCMEHHPCLHFELCYYQAIDLAIEMGLDRVEAGAQGEHKLARGYLPTETHSLHWVADPGFRAAIEQYLEAERAAVGEEIEILTSYGPFKKTHVEEQE	not soluble
MSLQMYAGWRVVVDKNCIKIVSSNLAAQKLIEKQHNARLDTIAAKQQKVELYSVSMATMKELYKLSMQNISGFGTESLYYKEIGSCALDIIRNVPELIKTVSKAKFTNQLYCLTELGGLVMETQQLVGNFVNIVNNAKIPNPLKGEGTAERKSDGYNILDRYERMSLANSIYTNLNEIRYKVDGMMLMAQYATLNDLCFAINPEGWANVMTMRNQVDGLVSDWNGLVATNEGHHHHHH	soluble
MAHHHHHHMFPQGLIDQWLSKSREGRRSVREDRKATPAILDNIARLEEYCRSHPYDVFCASTLQHPPFALHALESEAAEQQRLAQPPPVFAATVPSPSAHTTASNEVRGGVCGRYADGDESRASVTAARQHLHNVAARLAAYLQSSGAVRSSASRHEEESQCTVVADFFVHLLSEAAVAAVYRQGIAAQVEAEERAAFQHRQSQRRLQLRVDSKHDGTLQRLELSDSKGADTEAVHEVEGLTVVRPIADYRRLSQGLASLWSLLAQTQRRGGLAVGGPSKERSRDSTADTDSVNDNDNLWTRVRVDCLRHWLGDRALPPPPPLPGTAALGETQRKTEASSPAMPGGAWWSRPLYISERDVEFALRKVLADVTASAAS	soluble
MPFFANSDPMMSKLSQIQFADAPTLKGDKYPDVDAHRIIAPIISPIMEVFDQMKENQRARDQAEKIRKDREDHPLSTSRSLWEMFQRLQRPTTTTTEAPPLIERLFKPYIEPWQKQLDDFSKDMAGITLIPTTTTTPAPTTTTTPNFLEKSLSMFFPSLRRKPQSIPTLPPTTTPTPRLFDPEMFDRLFFKRDKRQATIAPAPKFDIFTVPPPPPLFQEWEKPILSLSNPFTLNPLMKMFTTPSPPQTLAPLPKIPEPNPYEIKKGLPEPQFKLQDPFYNPLFPSRKSKMFDFLAGGEAGRLLG	not soluble
MSLTNLFQDDSLTLHTDLYQLNMMKAYFDDGLHERRSVFEVFFRDMPFDSGFVVFAGLERIIHYMQNLRFTETDIAYLHDELGFDGPFLEYLRNFKFKGNILAAKEGEFVFKTEPILQVEASLAEAQLIETALLNIVNFQTLIATKAARIRSVIDDETFAEFGTRRAQEMDAAIWGTRAAYIGGCDSTSNVRAGKIFGIPVSGTMAHAMVQAYRDELEAFRSYAKTHFDSIFLVDTYDTLKSGVPNAIKVAKEMGDKINFIGIRLDSGDMAFLSKKARQMLDEAGFTEAKIFASSDLDEHTILSLKAQKAKIDSWGVGTKLITAYDQPALGAVYKMAAIADENDILQDSIKLSSNTEKVSTPGKKKVYRIITNEDGLKAEGDYIALADESLENVDKLTMFHPVHTYIMKTVENFTARELLVPIFQNGELVYDMPSLDEIKAYKEENLALLWDEYKRTVRPEQYPVDLSVKCWKNKMRNIEKVRKSVQLHSPVELDMPFEGHHHHHH	soluble
MGSDKIHHHHHHMGERTEDYRYVKTQHKIYTALIALLKKRAFDDITVRDLCQAAQVSRSGFYLHFVDKYDLVDSYGRDLVKMGMRLFYANRGNGLETLYTELLTLINEQGDLITLLLSRKGSVEIQNQIKNQLRQNAADNILPYYGIKNQSPVAQRYLIAMTTGAVLSILQEWLDSGKQESPAELVAVMQEQVMPTLQRSQFRL	not soluble
GQNHHEVVKFMDVYQRSYCHPIETLVDIFQEYPDEIEYIFKPSCVPLMRCGGCCNDEGLECVPTEESNITMQIMRIKPHQGQHIGEMSFLQHNKCECRPKKD	soluble
